The values that follow come from article PMC7452893 (2020).

Substitutions are numbered along the chain they refer to.

To fix the notation:
B1: MD47 (antibody, V domains shown)
V domain 1: QMQLVQSGGGLVQPGGSLRLSCAASGFTFSSYAMSWVRQAPGKGLEWVSAISSGGSTYYADSVKGRFTISRDNSKNTLYLQMNSLRAEDTAVYYCAKDLVTAPSYEAFDIWGQGTMITVSS
V domain 2: NFMLTQPPSVSVAPGKTARITCGGNNIGSKSVHWYQQKPGQAPVLVIYYDSDRPSGIPERFSGSNSGNTATLTISRVEAGDEADYYCQVWDSSSHHHVVFGGGTKGTVL
modifications: biotinylated when immobilised on the BLI sensor
B2: MD62 (antibody, V domains shown)
VH: EVQLVQSGGGLIQPGGSLRLSCAASGVTVSSNYMTWVRQAPGKGLEWVSLIYSGGSTYYADSVKGRFTISRDNSKNTLYLQMNSLRAEDTAVYYCARDLQYYGMDVWGQGTMVTVSS
VL: AIRMTQSPSSVSASVGDRVTITCRASQDIGSWLGWYQQKPGKAPKLLIYAASSLAGGVPSRFSGSGSGTDFTLTISSLQPEDFATYYCQQANSFPLTFGGGTKLEIK
modifications: biotinylated when immobilised on the BLI sensor
B3: MD29 (antibody, V domains shown)
VH: QMQLVQSGGGLVQPGGSLRLSCSASGFTFSTYVMNWVRQAPGKGPEHVSGISSDGGITYYADSVKGRFTISRDNSKNTLYLQMSSLRVEDTAVYYCVKDQDSSSWYDAFDIWGQGTMVTVSS
VL: NIRLTQSPSSLSASVGDRVTITCRATQSISSYLNWYQQKPGKAPNLLIYAASSLQSGVPSRFSGSGSGTDFTLTISSLQPEDFATYYCHQTYTSPYTFGQGTKLEIK
modifications: biotinylated when immobilised on the BLI sensor
B4: MD17 (antibody, V domains shown)
VH: B3 VH with Q1E, M2V, V5L, Q6E, P45L
VL: DIVMTQSPSSLSASVGDRVTITCRASQSISNYLNWYQQKLGKAPKLLTYAASRLQSGVPSRFSASGSGTEFTLTISSLQPEDFATYYCQQSYTTPLTFGGGTKLEIK
modifications: biotinylated when immobilised on the BLI sensor
B5: MD63 (antibody, V domains shown)
VH: QVTLKESGGGVVQPGRSLRLSCAASGFTFSSYAMHWVRQAPGKGLEHVSAISSDGGITYFADSVKGRFTISRDNSRNTLFLQMSSLRVEDTAVYYCVKDQDSNSWYDAFDIWGRGTMVTVSS
VL: not shown
modifications: biotinylated when immobilised on the BLI sensor
B6: MD67 (antibody, V domains shown)
VH: EVQLVESGGGLVQPGGSLRLSCAASGFTVSSNYMTWVRQAPGKGLEWVSVIYSGGSTFYADSVKGRFTISRHNSKNTLYLQMNSLRAEDTAVYYCARDLSVRGGMDVWGQGTTVTVSS
VL: not shown
modifications: biotinylated when immobilised on the BLI sensor
B7: MD45 (antibody, V domains shown)
VH: B6 VH with E6Q, T113M
VL: EIVLTQSPGTLSLSPGERATLSCRASQSVNSSYLAWYQQKPGQAPRLLIYGASNRATGIPDRFSGSGSGTDFTLTISRLEPEDFAVYYCQQYGVSPEIIFGQGTRLEIK
modifications: biotinylated when immobilised on the BLI sensor

The target of one assay is T1, SARS-CoV-2 spike receptor-binding domain (RBD), monomeric (SARS-CoV-2, UniProt P0DTC2). Put plainly: BLI.
Broadly, the koff is the first-order rate constant of dissociation. High values mean a short-lived complex, low ones a long-lived complex. B1 gave a koff of 9e-05 s⁻¹.
On the same count and under the same terms, as for B2, the figure is 0.00063 s⁻¹; as for B3, 0.00014 s⁻¹; as for B4, 0.00026 s⁻¹.
Still for that read-out and setting: as for B5, the figure is 0.00053 s⁻¹; as for B6, 0.00075 s⁻¹; as for B7, 0.00055 s⁻¹.

A further assay has as its target T1, SARS-CoV-2 spike receptor-binding …. Nature of the assay: BLI. This is another data set of the same source. Background: BLI is a label-free optical method that tracks binding on a fibre tip over time.
What is called Kd is the equilibrium constant for the complex coming apart. Low values mean tighter binding, high ones weaker binding. As to B1, the affinity, expressed as Kd, was 0.5 nM.
Regarding B2, the Kd turned out to be 4.8 nM.
Still for that read-out and setting: the figure for B4 is 2.6 nM; for B5 it is 3.4 nM.
Still for that read-out and setting: as for B7, the figure is 5.6 nM.
